Measured values as given in patent US20220389119A1.

Target: WT Fc chain lacking a warhead
Assay: co-expression in HEK 293 EBNA1, protein A purification, non-reduced micro-capillary gel electrophoresis; 50 kDa = Fc homodimer lacking warheads

- NR-mCE 50 kDa (%): 21.4%
Substance: WT Fc chain lacking a warhead
